{"source": "patent US20170281723A1", "about": "(OHIO STATE INNOVATION FOUNDATION, published 2017)", "key": {"[1]": {"target": "Calcineurin (CN), purified as glutathione S-transferase fusion protein from Escherichia coli BL21 cells (UniProt Q08209)", "assay": "FA competition, competitor FITC-ZIZIT (100 nM), CN 150 nM"}, "[2]": {"target": "Calcineurin (CN), purified as glutathione S-transferase fusion protein from Escherichia coli BL21 cells (UniProt Q08209)", "assay": "fluorescence anisotropy, ratio of KD values against VIVIT"}, "[3]": {"target": "Calcineurin (CN), purified as glutathione S-transferase fusion protein from Escherichia coli BL21 cells (UniProt Q08209)", "assay": "fluorescence anisotropy, N-terminal 5(6)-SFX labeled peptide (100 nM) titrated with CN"}, "[4]": {"target": "protein-tyrosine phosphatase SHP1 (UniProt P29350)", "assay": "fluorescence anisotropy, FITC-labeled ZIZIT-cisPro 100 nM"}, "[5]": {"target": "Calcineurin (CN), purified as glutathione S-transferase fusion protein from Escherichia coli BL21 cells (UniProt Q08209)", "assay": "fluorescence anisotropy, ratio of KD values against ZIZIT"}, "[6]": {"target": "Calcineurin (CN), purified as glutathione S-transferase fusion protein from Escherichia coli BL21 cells (UniProt Q08209)", "assay": "in vitro binding to CN, against ZIZIT"}, "[7]": {"target": "T1, Grb2 SH2 domain (UniProt P62993 60-152, limits assumed)", "T1 construct": "domain: SH2 domain; also called SH2 domain of Grb2", "T1 sequence (P62993 60-152 limits assumed)": "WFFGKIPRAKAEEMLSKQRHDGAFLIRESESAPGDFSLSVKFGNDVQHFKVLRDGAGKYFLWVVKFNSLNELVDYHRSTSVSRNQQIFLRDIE", "assay": "fluorescence anisotropy, FITC-labeled ZIZIT-cisPro 100 nM"}, "[8]": {"target": "bovine serum albumin (BSA) (bovine, UniProt P02769 25-607)", "sequence (P02769 25-607 limits assumed)": "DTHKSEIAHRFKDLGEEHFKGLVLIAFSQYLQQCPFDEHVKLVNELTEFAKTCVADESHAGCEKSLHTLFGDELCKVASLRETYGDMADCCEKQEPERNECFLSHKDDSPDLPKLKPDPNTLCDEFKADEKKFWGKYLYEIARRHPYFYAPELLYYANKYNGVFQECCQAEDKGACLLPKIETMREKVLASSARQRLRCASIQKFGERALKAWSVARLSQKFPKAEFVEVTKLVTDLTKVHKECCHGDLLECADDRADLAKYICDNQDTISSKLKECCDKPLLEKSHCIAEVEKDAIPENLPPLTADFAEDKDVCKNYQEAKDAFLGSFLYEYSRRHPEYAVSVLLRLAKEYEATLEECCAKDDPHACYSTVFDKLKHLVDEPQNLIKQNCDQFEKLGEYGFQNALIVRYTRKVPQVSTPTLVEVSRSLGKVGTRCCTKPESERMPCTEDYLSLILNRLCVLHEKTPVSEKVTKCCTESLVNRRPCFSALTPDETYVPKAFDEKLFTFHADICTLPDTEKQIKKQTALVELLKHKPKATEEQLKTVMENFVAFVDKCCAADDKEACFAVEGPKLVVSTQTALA", "assay": "fluorescence anisotropy, FITC-labeled ZIZIT-cisPro 100 nM"}}, "note": "Starred links: 1 amine or outer side, 2 acyl side, 3 side chain; linkers in the order of their positions; H or OH if unused. Non-standard residues stand in square brackets, D forms with d. *: point of attachment. Cys(ΨMe,MePro) = 2,2-dimethyl-L-thiazolidine-4-carboxylic acid, cis-proline analog, CC1(C)SC[C@@H](C(=O)[*:2])N1[*:1]; F∗ = N-terminal 5(6)-SFX fluorescein label; Tle = CC(C)(C)[C@H](N)C(=O)O; NHPr = CCCN*"}
{"molecule": "unlabeled ZIZIT-cisPro peptide (GPHPZIZITG-Cys(Ψ^Me,MePro)-HEE)", "values": [{"measurement": "IC50", "setting": "[1]", "result": 110, "unit": "nM"}]}
{"molecule": "unlabeled ZIZIT peptide (GPHPZIZITGPHEE, Z = tert-leucine)", "values": [{"measurement": "IC50", "setting": "[1]", "result": 280, "unit": "nM"}]}
{"molecule": "Fluorescein-labeled ZIZIT peptide (GPHPZIZITGPHEE, Z = tert-leucine)", "values": [{"measurement": "fold higher affinity than VIVIT", "setting": "[2]", "result": 10, "unit": "fold"}, {"measurement": "Kd", "setting": "[3]", "result": 43, "unit": "nM"}]}
{"molecule": "{F∗}-GPHAVAVAAGPHEE-NH2", "note": "[F*-…-NH2 (F*-VAVAA), fluorescein-labeled negative control peptide]", "values": [{"measurement": "Kd", "setting": "[3]", "result": "> 20000", "unit": "nM"}]}
{"molecule": "{F∗}-GPHP[Tle]I[Tle]ITG[Cys(ΨMe,MePro)]HEEG-NHPr (also called FITC-labeled ZIZIT-cisPro)", "note": "[F*-GPHPZIZITG-Cys(Ψ^Me,MePro)-HEEG-Propyl (F*-ZIZIT-cis), fluorescein-labeled ZIZIT-cisPro]", "values": [{"measurement": "Kd", "setting": "[4]", "result": "> 15000", "unit": "nM"}, {"measurement": "fold increase of binding affinity over ZIZIT", "setting": "[5]", "result": 20, "unit": "fold"}, {"measurement": "fold improvement of binding affinity over VIVIT", "setting": "[2]", "result": 200, "unit": "fold"}, {"measurement": "fold more active than ZIZIT for binding", "setting": "[6]", "result": 15, "unit": "fold"}, {"measurement": "Kd", "setting": "[3]", "result": 2.6, "unit": "nM"}, {"measurement": "binding result", "setting": "[7]", "result": "no binding (tested: 15 µM)"}, {"measurement": "binding result", "setting": "[8]", "result": "no binding (tested: 15 µM)"}]}
